From article PMC4919518

Columns and labels:
RsAgo delP45-W63 = target: T1, RsAgo delP45-W63 (Rhodobacter sphaeroides (ATCC 17025D-5), UniProt A4WYU7 1-777, del45-63); assay: fluorescence polarization; 5 mM Mg2+; same binding capacity as WT; FP: 20 mM HEPES-KOH pH 7.5, 200 mM NaCl, 5 mM MgCl2, 0.01 mg/ml E. coli total tRNA, 0.01% NP-40, 10 pM probe, 25 C; EMSA: 20 mM HEPES-KOH pH 7.5, 200 mM NaCl, 5
T1 sequence: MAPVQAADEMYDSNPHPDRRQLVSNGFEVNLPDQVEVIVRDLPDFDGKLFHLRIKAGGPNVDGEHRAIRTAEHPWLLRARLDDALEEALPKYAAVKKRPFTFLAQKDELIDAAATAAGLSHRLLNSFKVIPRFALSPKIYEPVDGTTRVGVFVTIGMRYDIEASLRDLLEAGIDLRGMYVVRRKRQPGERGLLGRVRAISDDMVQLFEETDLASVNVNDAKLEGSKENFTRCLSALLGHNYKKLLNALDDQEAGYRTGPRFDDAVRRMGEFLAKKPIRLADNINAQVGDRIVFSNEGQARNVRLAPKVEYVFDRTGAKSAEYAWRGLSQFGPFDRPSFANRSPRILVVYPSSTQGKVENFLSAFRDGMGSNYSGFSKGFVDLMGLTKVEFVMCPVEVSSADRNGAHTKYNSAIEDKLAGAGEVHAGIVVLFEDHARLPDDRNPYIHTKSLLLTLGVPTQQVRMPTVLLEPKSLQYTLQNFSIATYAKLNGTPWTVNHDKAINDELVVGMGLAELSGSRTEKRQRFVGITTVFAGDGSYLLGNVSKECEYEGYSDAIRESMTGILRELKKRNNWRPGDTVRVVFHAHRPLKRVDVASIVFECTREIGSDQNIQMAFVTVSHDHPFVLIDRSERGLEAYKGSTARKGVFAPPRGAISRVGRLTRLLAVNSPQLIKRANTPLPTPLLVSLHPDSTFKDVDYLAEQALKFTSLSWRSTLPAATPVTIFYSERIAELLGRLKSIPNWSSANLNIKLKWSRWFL

RsAgo K506A = target: T2, RsAgo K506A (Rhodobacter sphaeroides (ATCC 17025D-5), UniProt A4WYU7 1-777, K506A); assay: fluorescence polarization; 5 mM Mg2+; FP: 20 mM HEPES-KOH pH 7.5, 200 mM NaCl, 5 mM MgCl2, 0.01 mg/ml E. coli total tRNA, 0.01% NP-40, 10 pM probe, 25 C; EMSA: 20 mM HEPES-KOH pH 7.5, 200 mM NaCl, 5
T2 sequence: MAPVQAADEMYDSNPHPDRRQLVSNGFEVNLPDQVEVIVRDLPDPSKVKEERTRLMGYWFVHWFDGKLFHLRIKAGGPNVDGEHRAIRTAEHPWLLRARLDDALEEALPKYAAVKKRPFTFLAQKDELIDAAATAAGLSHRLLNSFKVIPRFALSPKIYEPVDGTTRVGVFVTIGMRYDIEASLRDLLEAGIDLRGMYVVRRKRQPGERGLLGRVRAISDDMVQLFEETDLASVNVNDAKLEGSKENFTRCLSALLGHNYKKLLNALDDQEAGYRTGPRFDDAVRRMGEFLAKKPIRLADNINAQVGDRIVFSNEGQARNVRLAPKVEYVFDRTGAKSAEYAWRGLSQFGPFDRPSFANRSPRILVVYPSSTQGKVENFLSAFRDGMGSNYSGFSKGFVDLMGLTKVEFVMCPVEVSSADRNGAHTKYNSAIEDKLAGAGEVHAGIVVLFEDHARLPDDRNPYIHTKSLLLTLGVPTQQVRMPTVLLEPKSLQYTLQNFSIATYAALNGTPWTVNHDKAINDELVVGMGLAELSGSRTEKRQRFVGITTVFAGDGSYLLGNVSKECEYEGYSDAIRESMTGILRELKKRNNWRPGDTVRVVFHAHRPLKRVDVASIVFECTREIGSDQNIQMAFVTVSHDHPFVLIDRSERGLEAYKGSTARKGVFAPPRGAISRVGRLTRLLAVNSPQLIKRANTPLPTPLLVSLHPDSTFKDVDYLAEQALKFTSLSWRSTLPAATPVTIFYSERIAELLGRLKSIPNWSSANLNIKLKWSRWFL

RsAgo R481A/T484A = target: T3, RsAgo R481A/T484A (Rhodobacter sphaeroides (ATCC 17025D-5), UniProt A4WYU7 1-777, R481A;T484A); assay: as above
T3 sequence: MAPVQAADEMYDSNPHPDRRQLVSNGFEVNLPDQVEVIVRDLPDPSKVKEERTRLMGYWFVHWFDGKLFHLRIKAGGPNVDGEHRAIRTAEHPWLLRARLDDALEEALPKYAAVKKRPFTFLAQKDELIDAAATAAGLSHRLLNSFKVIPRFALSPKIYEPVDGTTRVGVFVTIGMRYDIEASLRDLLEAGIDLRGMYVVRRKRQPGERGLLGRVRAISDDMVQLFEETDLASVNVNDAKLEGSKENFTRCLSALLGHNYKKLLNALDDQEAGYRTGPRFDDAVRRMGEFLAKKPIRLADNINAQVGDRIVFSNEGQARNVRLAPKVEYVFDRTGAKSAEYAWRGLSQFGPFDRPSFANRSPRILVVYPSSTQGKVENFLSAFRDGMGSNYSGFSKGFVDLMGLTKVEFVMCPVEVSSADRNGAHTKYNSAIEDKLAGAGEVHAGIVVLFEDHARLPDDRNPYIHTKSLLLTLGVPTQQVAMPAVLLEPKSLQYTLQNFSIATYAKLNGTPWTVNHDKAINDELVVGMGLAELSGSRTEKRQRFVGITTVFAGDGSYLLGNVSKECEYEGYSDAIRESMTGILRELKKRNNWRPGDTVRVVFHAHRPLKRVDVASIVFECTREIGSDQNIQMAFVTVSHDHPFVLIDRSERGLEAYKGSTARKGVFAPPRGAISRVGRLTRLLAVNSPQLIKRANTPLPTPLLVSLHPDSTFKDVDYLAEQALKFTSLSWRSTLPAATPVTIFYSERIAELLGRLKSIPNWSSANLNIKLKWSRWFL

UUACAACCUACUACCUCG (ssRNA, 5'-phosphate) [5'P-RNA (5'U-RNA), FAM]
binding result (RsAgo delP45-W63): binds | Kd (RsAgo K506A): 1030 ± 47 nM | Kd (RsAgo R481A/T484A): 718 ± 36 nM
